Test results: publication PMC11045720

Experiments:
[1] = target: Alcohol dehydrogenase from baker's yeast (baker's yeast) (UniProt P00330); assay: mass photometry (native, nMP); samples diluted in their native buffer to 100-400 nM, then drop-diluted to 10-40 nM in a PBS droplet; room temperature (18 °C); triplicates
[2] = target: Alcohol dehydrogenase from baker's yeast (baker's yeast) (UniProt P00330); assay: cross-linking; DSBU at 25:1 to 1000:1 molar excess on 1 mg/mL protein, 45 min at room temperature (20 °C), quenched with Tris HCl; read by denaturing mass photometry (5 min in 5.4 M urea) and SDS-PAGE
[3] = target: Human 20 S proteasome (human); assay: cross-linking; formaldehyde 0.05% to 1% (vol/vol) on 1 mg/mL protein, 20 min at room temperature; read by denaturing mass photometry
[4] = target: Human 20 S proteasome (human); assay: mass photometry (native, nMP); samples diluted in their native buffer to 100-400 nM, then drop-diluted to 10-40 nM in a PBS droplet; room temperature (18 °C); triplicates

percent of detected species that are monomers (nMP) [1] | stoichiometry N [1] | stoichiometry N [2] | stoichiometry N [3] | percent of detected species that are monomers (nMP) [4] | stoichiometry N [4] | Substance
46% | 4 | 4 | – | – | – | Alcohol dehydrogenase from baker's yeast (from UniProt P00330 1-348) (enzyme)
– | – | – | 28 | 51% | 28 | Human 20 S proteasome (complex)
